Data published in the supplement of paper PMC11908140.

B1: library; numbered along this chain (parent)
chain: MRKPRAAVGSGHRKQAASQEGRQKHAKNNSQAKPSACDGLARQPEEVVLQASVSSYHLFRDVAEVTAFRGSLLSWYDQEKRDLPWRRRAEDEMDLDRRAYAVWVSEVMLQQTQVATVINYYTGWMQKWPTLQDLASASLEEVNQLWAGLGYYSRGRRLQEGARKVVEELGGHMPRTAETLQQLLPGVGRYTAGAIASIAFGQATGVVDGNVARVLCRVRAIGADPSSTLVSQQLWGLAQQLVDPARPGDFNQAAMELGATVCTPQRPLCSQCPVESLCRARQRVEQEQLLASGSLSGSPDVEECAPNTGQCHLCLPPSEPWDQTLGVVNFPRKASRKPPREESSATCVLEQPGALGAQILLVQRPNSGLLAGLWEFPSVTWEPSEQLQRKALLQELQRWAGPLPATHLRHLGEVVHTFSHIKLTYQVYGLALEGQTPVTTVPPGARWLTQEEFHTAAVSTAMKKVFRVYQGQQPGTCMGSKRSQVSSPCSRKKPRMGQQVLDNFFRSHISTDAHSLNSAAQ

Variants of: B1
Experiment: 8OG:A repair function score (normalized; synonymous = 0, nonsense = -1) (normalized log-likelihood score); higher = more repair activity (WT-like)
Settings: with 8OG:A DNA repair reporter (GFP) in HEK-293 MUTYH KO cells
Method in brief: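 MUTYH knockout HEK-293 cells carrying lentiviral MUTYH cDNA NNN codon-scan libraries were grown with 10 pg/ml doxycycline and co-transfected with mCherry and a GFP reporter of 8OG:A repair. Viable mCherry+ cells were sorted at 72 h into GFP+ (repair) and GFP− bins, with three replicates per tile, and tile amplicons were sequenced. Rosace fitness scores for each tile were turned into a normalized repair function score anchored on the synonymous and nonsense distributions. Synonymous medians were set to 0 and nonsense medians to -1, and variants below 300 counts per million at the start were dropped.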

Going from S298L to R364S, the “8OG:A repair function score” value falls from 0.0173 to -0.2.

Going from I359H to I359L, the “8OG:A repair function score” value rises from -0.143 to 0.0476.

First: D249Q
Second: N517P
The “8OG:A repair function score” value of the first is lower: -0.428 for the first, 0.0174 for the second.

Going from N517M to N517A, the “8OG:A repair function score” value falls from 0.0171 to -0.00673.

First: Q498E
Second: L360C
The “8OG:A repair function score” value of the first is higher: 0.0145 for the first, -0.171 for the second.

Going from L360R to R42M, the “8OG:A repair function score” value rises from -1.17 to -0.196.

First: F466H
Second: R389H
The “8OG:A repair function score” value of the first is higher: -0.355 for the first, -0.403 for the second.

Going from R389A to A212S, the “8OG:A repair function score” value rises from -0.241 to -0.131.

First: L370G
Second: V211K
The “8OG:A repair function score” value of the first is higher: -0.609 for the first, -1 for the second.

Going from V211D to Q397K, the “8OG:A repair function score” value rises from -0.988 to -0.304.

Compared with Y469I, Y469Q is lower in “8OG:A repair function score” value: -0.259 for the first, -0.317 for the second.

Compared with Y469W, Y469K is lower in “8OG:A repair function score” value: 0.00845 for the first, -0.326 for the second.

Compared with Y469C, M255P is lower in “8OG:A repair function score” value: -0.193 for the first, -1 for the second.

First: A89V
Second: A371E
The “8OG:A repair function score” value of the first is higher: 0.00684 for the first, -0.577 for the second.

First: L355Y
Second: P338H
The “8OG:A repair function score” value of the first is higher: 0.0403 for the first, -0.0311 for the second.

Going from A519Q to A519I, the “8OG:A repair function score” value falls from 0.023 to -0.0243.

Compared with R467N, R467D is higher in “8OG:A repair function score” value: -0.0631 for the first, -0.0155 for the second.

Going from L289M to L289S, the “8OG:A repair function score” value rises from -0.0277 to -0.0139.

Going from P404N to R281E, the “8OG:A repair function score” value falls from 0.336 to -0.484.

Going from R336H to R336D, the “8OG:A repair function score” value falls from -0.173 to -0.271.

Compared with V104T, F418L is higher in “8OG:A repair function score” value: -0.472 for the first, -0.304 for the second.

First: R98P
Second: C272N
The “8OG:A repair function score” value of the first is higher: -0.714 for the first, -1.21 for the second.

Compared with T476C, Y56R is higher in “8OG:A repair function score” value: -0.0603 for the first, -0.0483 for the second.

Compared with C347S, R154T is lower in “8OG:A repair function score” value: -0.457 for the first, -1.16 for the second.

Going from S486E to S518W, the “8OG:A repair function score” value falls from 0.0262 to -0.0247.

First: S384V
Second: P442K
The “8OG:A repair function score” value of the first is higher: -0.0122 for the first, -0.261 for the second.

Compared with P442D, P442T is higher in “8OG:A repair function score” value: -0.0873 for the first, -0.0315 for the second.

Compared with E342D, E141M is lower in “8OG:A repair function score” value: 0.0832 for the first, -0.111 for the second.

Going from E141W to L95S, the “8OG:A repair function score” value rises from -0.348 to -0.00398.

Compared with E178H, S227F is lower in “8OG:A repair function score” value: -0.0501 for the first, -0.188 for the second.

Compared with E285M, L169T is lower in “8OG:A repair function score” value: -9.17e-05 for the first, -0.186 for the second.

First: W75V
Second: T380L
The “8OG:A repair function score” value of the first is lower: -1.78 for the first, -0.0431 for the second.

First: T380V
Second: T380N
The “8OG:A repair function score” value of the first is higher: -0.0828 for the first, -0.171 for the second.

First: Q252E
Second: V230S
The “8OG:A repair function score” value of the first is higher: -0.386 for the first, -0.422 for the second.

First: P331A
Second: G236A
The “8OG:A repair function score” value of the first is lower: -0.0508 for the first, 0.149 for the second.

First: Q386C
Second: G209L
The “8OG:A repair function score” value of the first is higher: 0.0105 for the first, -0.534 for the second.

First: G209W
Second: Q182Y
The “8OG:A repair function score” value of the first is lower: -0.876 for the first, 0.00409 for the second.

First: Q182A
Second: Q233R
The “8OG:A repair function score” value of the first is higher: 0.0281 for the first, -0.19 for the second.

First: A101Q
Second: L268K
The “8OG:A repair function score” value of the first is lower: -1.09 for the first, 0.0167 for the second.

Going from L268F to L295P, the “8OG:A repair function score” value rises from 0.00448 to 0.0289.

First: L109P
Second: L109A
The “8OG:A repair function score” value of the first is lower: -1 for the first, 0.00548 for the second.

First: R60F
Second: P474E
The “8OG:A repair function score” value of the first is lower: -0.0889 for the first, 0.0263 for the second.

Compared with P352K, E319G is lower in “8OG:A repair function score” value: 0.00765 for the first, -0.0752 for the second.

First: Q265M
Second: Q265W
The “8OG:A repair function score” value of the first is higher: -0.0825 for the first, -0.0937 for the second.

Compared with S343D, S343I is lower in “8OG:A repair function score” value: 0.0576 for the first, -0.0485 for the second.

First: I118E
Second: I118G
The “8OG:A repair function score” value of the first is higher: -0.0341 for the first, -0.107 for the second.

Going from I118F to E452R, the “8OG:A repair function score” value rises from -0.3 to -0.0533.

Going from E452M to G497C, the “8OG:A repair function score” value rises from -0.205 to -0.127.

Going from D208F to D208Y, the “8OG:A repair function score” value rises from -1.04 to -1.01.

Going from S378A to S378G, the “8OG:A repair function score” value falls from -0.104 to -0.248.

First: S378P
Second: H410L
The “8OG:A repair function score” value of the first is lower: -0.772 for the first, -0.3 for the second.

Compared with A254P, K164A is higher in “8OG:A repair function score” value: -0.979 for the first, -0.133 for the second.

Compared with R69L, R69M is lower in “8OG:A repair function score” value: -1.24 for the first, -3.11 for the second.

First: V362Q
Second: H416W
The “8OG:A repair function score” value of the first is lower: -0.414 for the first, -0.209 for the second.

Going from H416E to H416V, the “8OG:A repair function score” value rises from -0.909 to -0.101.

Compared with Y120H, I509F is higher in “8OG:A repair function score” value: -0.238 for the first, -0.0535 for the second.

Going from V274K to V458L, the “8OG:A repair function score” value rises from -1.03 to -0.294.

Compared with K3G, K3A is higher in “8OG:A repair function score” value: 0.00287 for the first, 0.108 for the second.

Compared with L313V, M496A is higher in “8OG:A repair function score” value: -0.213 for the first, 0.0241 for the second.

Compared with M496W, F505K is lower in “8OG:A repair function score” value: -0.045 for the first, -0.0487 for the second.

First: S294G
Second: A99F
The “8OG:A repair function score” value of the first is higher: -0.00188 for the first, -1.14 for the second.

Compared with Q521I, L72H is lower in “8OG:A repair function score” value: -0.0216 for the first, -1.08 for the second.

Going from L72W to L290T, the “8OG:A repair function score” value rises from -0.994 to 0.0127.

First: E413V
Second: A457K
The “8OG:A repair function score” value of the first is higher: -0.059 for the first, -0.815 for the second.

First: T260P
Second: T260F
The “8OG:A repair function score” value of the first is lower: -1.17 for the first, -0.281 for the second.

First: K337P
Second: K337S
The “8OG:A repair function score” value of the first is higher: 0.0544 for the first, -0.109 for the second.

Going from A345I to A345H, the “8OG:A repair function score” value falls from 0.0369 to -0.107.

Compared with V47D, Q159E is lower in “8OG:A repair function score” value: -0.0274 for the first, -0.416 for the second.

First: Q159R
Second: A391N
The “8OG:A repair function score” value of the first is higher: 0.162 for the first, -0.196 for the second.

Going from W447K to A6H, the “8OG:A repair function score” value rises from -0.937 to -0.0145.

Going from A6T to Q472Y, the “8OG:A repair function score” value falls from 0.0379 to 0.00647.

Going from N503P to G258I, the “8OG:A repair function score” value falls from -0.000934 to -1.02.

First: K464F
Second: C262G
The “8OG:A repair function score” value of the first is higher: -0.702 for the first, -1 for the second.

First: K422P
Second: K422A
The “8OG:A repair function score” value of the first is lower: -1.09 for the first, -0.0566 for the second.

Compared with K422V, K422L is lower in “8OG:A repair function score” value: -0.231 for the first, -0.353 for the second.

First: V427W
Second: N251F
The “8OG:A repair function score” value of the first is higher: -0.831 for the first, -1.03 for the second.

Compared with T112K, T112L is lower in “8OG:A repair function score” value: -1.01 for the first, -1.42 for the second.

First: T112I
Second: A291H
The “8OG:A repair function score” value of the first is lower: -1.18 for the first, -0.0755 for the second.

First: A291T
Second: V438E
The “8OG:A repair function score” value of the first is lower: -0.0451 for the first, 0.281 for the second.

Compared with V438L, R398D is lower in “8OG:A repair function score” value: -0.0153 for the first, -0.249 for the second.

Going from R398C to V328Y, the “8OG:A repair function score” value falls from -0.0446 to -0.134.

First: G39S
Second: G39L
The “8OG:A repair function score” value of the first is higher: 0.0658 for the first, 0.0565 for the second.

Compared with G161D, G161N is higher in “8OG:A repair function score” value: -0.688 for the first, -0.325 for the second.

For C311M, the “8OG:A repair function score” value was -0.621.
